{"source": "paper PMC10293748", "target": "SARS-CoV-2 RBDWT, His-tagged, soluble (SARS-CoV-2) (UniProt P0DTC2)", "test": "ELISA"}
{"substance": "soluble ACE2 (sACE2), commercially available, His-tagged (domain or fragment)", "values": [{"measurement": "IC50", "value": 179, "unit": "nM"}]}
